Here are results for two substances from publication doi:10.1101/2023.09.20.558696.

Common to all, as to assay: co-IP
The target in experiment [1] is LtPP1-8e 260LP261 to alanine, Pd-tagged (L. tarentolae).
Experiment [2] addresses LtPP1-8e I217A, Pd-tagged (L. tarentolae).
Experiment [3] concerns the target LtPP1-8e F305A, Pd-tagged (L. tarentolae).
Experiment [4] addresses LtPP1-8e I360A, Pd-tagged (L. tarentolae).
The target of experiment [5] is LtPP1-8e 359-362A, Pd-tagged (L. tarentolae).
The target in experiment [6] is LtPP1-8e CΔ23, Pd-tagged (L. tarentolae).
Experiment [7] deals with LtPP1-8e 263-265A, Pd-tagged (L. tarentolae).
The target of experiment [8] is LtPP1-8e 109-114A, Pd-tagged (L. tarentolae).
Experiment [9] addresses LtPP1-8e D290A, Pd-tagged (L. tarentolae).
The target in experiment [10] is LtPP1-8e 354-358A, Pd-tagged (L. tarentolae).
Experiment [11] deals with LtPP1-8e 109-134Δ, Pd-tagged (L. tarentolae).
Experiment [12] has as its target LtPP1-8e CΔ11, Pd-tagged (L. tarentolae).
Experiment [13] has as its target LtPP1-8e D292A, Pd-tagged (L. tarentolae).
Experiment [14] deals with LtPP1-8e 310DHK312 to alanine, Pd-tagged (L. tarentolae).
Experiment [15] concerns the target LtPNUTS L111A, Pd-tagged (L. tarentolae).
The target in experiment [16] is LtPNUTS V97A, Pd-tagged (L. tarentolae).
Experiment [17] has as its target LtPNUTS D101A, Pd-tagged (L. tarentolae).
Experiment [18] deals with LtPNUTS R94A, Pd-tagged (L. tarentolae).

On to “LtPNUTS, endogenously HA-tagged (natural protein)”, for which the reduction of co-IP against WT PP1-8e in experiment [1] is 80%; in [2], 50%; in experiment [3], 80%; in [4], 80%; in experiment [5], 80%; in experiment [7], 90%. Moreover, the reduction of co-IP against WT PP1-8e in experiment [8] was found to be 80%; in [9], 50%; in [10], 50%; in experiment [11], 80%; in [12], 30%; in [13] it was 60%. In experiment [6], this substance came in with a loss of co-IP against WT PP1-8e of 80%. The substance also yielded a decrease of co-IP against WT PP1-8e in experiment [14] of 20%.
In the case of “LtPP1-8e, endogenously HA-tagged (enzyme)”, the reduction of co-IP against WT PNUTS came to 80% in experiment [15] and 50% in [18]. In experiment [16], this substance returned a fold decrease of co-IP against WT PNUTS of 5 fold. In experiment [17], the decrease of co-IP against WT PNUTS was 80%.
